Experiments:
[1] = target: E2 ubiquitin-conjugating enzyme Ubch8, O14933
[2] = target: E2 ubiquitin-conjugating enzyme UbchD2, P62837
E2 ubiquitin-conjugating enzyme UbchD2, P62837, sequence (P62837 whole entry, looked up): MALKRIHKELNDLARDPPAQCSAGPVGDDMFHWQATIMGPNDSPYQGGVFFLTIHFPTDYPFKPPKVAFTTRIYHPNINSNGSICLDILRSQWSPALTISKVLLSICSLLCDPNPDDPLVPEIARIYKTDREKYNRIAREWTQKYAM

E2 ubiquitin-conjugating enzyme Ubch8, O14933, sequence (O14933 whole entry): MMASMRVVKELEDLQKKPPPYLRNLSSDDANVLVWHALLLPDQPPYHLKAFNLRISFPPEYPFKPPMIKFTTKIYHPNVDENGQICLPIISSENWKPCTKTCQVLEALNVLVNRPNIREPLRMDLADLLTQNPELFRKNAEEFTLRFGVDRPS

B1: GST-Chfr (glutathione S-transferase fused to the N-terminus of full-length human Chfr) (protein)
chain: MERPEEGKQSPPPQPWGRLLRLGAEEGEPHVLLRKREWTIGRRRGCDLSFPSNKLVSGDHCRIVVDEKSGQVTLEDTSTSGTVINKLKVVKKQTCPLQTGDVIYLVYRKNEPEHNVAYLYESLSEKQGMTQESFEANKENVFHGTKDTSGAGAGRGADPRVPPSSPATQVCFEEPQPSTSTSDLFPTASASSTEPSPAGRERSSSCGSGGGGISPKGSGPSVASDEVSSFASALPDRKTASFSSLEPQDQEDLEPVKKKMRGDGDLDLNGQLLVAQPRRNAQTVHEDVRAAAGKPDKMEETLTCIICQDLLHDCVSLQPCMHTFCAACYSGWMERSSLCPTCRCPVERICKNHILNNLVEAYLIQHPDKSRSEEDVQSMDARNKITQDMLQPKVRRSFSDEEGSSEDLLELSDVDSESSDISQPYVVCRQCPEYRRQAAQPPHCPAPEGEPGAPQALGDAPSTSVSLTTAVQDYVCPLQGSHALCTCCFQPMPDRRAEREQDPRVAPQQCAVCLQPFCHLYWGCTRTGCYGCLAPFCELNLGDKCLDGVLNNNSYESDILKNYLATRGLTWKNMLTESLVALQRGVFLLSDYRVTGDTVLCYCCGLRSFRELTYQYRQNIPASELPVAVTSRPDCYWGRNCRTQVKAHHAMKFNHICEQTRFKN
- ubiquitin-protein ligase activity in vitro (ubiquitination of GST-Chfr, anti-ubiquitin immunoblot) [1]: did not function in this assay
- ubiquitin-protein ligase activity in vitro (ubiquitination of GST-Chfr, anti-ubiquitin immunoblot) [2]: supported the ubiquitin-protein ligase activity of Chfr

From patent US7176293
